The values below come from article PMC12416549 (2024).

Numbering of substitutions follows the chain as printed. Names may count otherwise.

The labels stand for the following.
T1: TNFR1 (Homo sapiens, UniProt P19438)
T1 chain: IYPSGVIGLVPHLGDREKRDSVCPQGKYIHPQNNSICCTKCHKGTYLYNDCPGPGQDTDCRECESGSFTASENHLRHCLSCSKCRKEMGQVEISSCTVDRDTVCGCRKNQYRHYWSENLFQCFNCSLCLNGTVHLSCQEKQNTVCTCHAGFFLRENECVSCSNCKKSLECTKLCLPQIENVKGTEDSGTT

B1: A106G (designed binder)
chain: SMEEEVEKAAKEYEKKKKEAIEKHLEKLKAKDKEAAERFLKELEEAAKEYAKDEAKTMSEEEAKRRAKKYKEKVLLSELSEEEQKEIKEAEEKLVRTILKYVEEAGK
B2: F39G (designed binder)
chain: B1 chain with F39G, G106A
B3: K64G (designed binder)
chain: B1 chain with K64G, G106A
B4: A20D (designed binder)
chain: B1 chain with A20D, G106A
B5: E60T (designed binder)
chain: B1 chain with E60T, G106A
B6: K48L (designed binder)
chain: B1 chain with K48L, G106A
B7: K33R (designed binder)
chain: B1 chain with K33R, G106A
B8: Y50L (designed binder)
chain: B1 chain with Y50L, G106A
B9: L79P (designed binder)
chain: B1 chain with L79P, G106A
B10: Y70S (designed binder)
chain: B1 chain with Y70S, G106A
B11: E26K (designed binder)
chain: B1 chain with E26K, G106A
B12: E7M (designed binder)
chain: B1 chain with E7M, G106A
B13: S59G (designed binder)
chain: B1 chain with S59G, G106A
B14: R65N (designed binder)
chain: B1 chain with R65N, G106A
B15: L40C (designed binder)
chain: B1 chain with L40C, G106A
B16: M2V (designed binder)
chain: B1 chain with M2V, G106A
B17: K100A (designed binder)
chain: B1 chain with K100A, G106A
B18: A47Q (designed binder)
chain: B1 chain with A47Q, G106A
B19: A51T (designed binder)
chain: B1 chain with A51T, G106A
B20: K85Y (designed binder)
chain: B1 chain with K85Y, G106A
B21: S59N (designed binder)
chain: B1 chain with S59N, G106A
B22: E37A (designed binder)
chain: B1 chain with E37A, G106A
B23: M58T (designed binder)
chain: B1 chain with M58T, G106A
B24: K29G (designed binder)
chain: B1 chain with K29G, G106A
B25: E82T (designed binder)
chain: B1 chain with E82T, G106A
B26: T57V (designed binder)
chain: B1 chain with T57V, G106A
B27: L79I (designed binder)
chain: B1 chain with L79I, G106A
B28: K11Q (designed binder)
chain: B1 chain with K11Q, G106A
B29: A10V (designed binder)
chain: B1 chain with A10V, G106A
B30: E14D (designed binder)
chain: B1 chain with E14D, G106A
B31: I98L (designed binder)
chain: B1 chain with I98L, G106A
B32: K8C (designed binder)
chain: B1 chain with K8C, G106A
B33: E14C (designed binder)
chain: B1 chain with E14C, G106A
B34: L28M (designed binder)
chain: B1 chain with L28M, G106A
B35: E42Y (designed binder)
chain: B1 chain with E42Y, G106A
B36: K73P (designed binder)
chain: B1 chain with K73P, G106A
B37: E83G (designed binder)
chain: B1 chain with E83G, G106A
B38: E83R (designed binder)
chain: B1 chain with E83R, G106A
B39: Y70I (designed binder)
chain: B1 chain with Y70I, G106A
B40: A9H (designed binder)
chain: B1 chain with A9H, G106A
B41: E34S (designed binder)
chain: B1 chain with E34S, G106A
B42: K68P (designed binder)
chain: B1 chain with K68P, G106A
B43: E37N (designed binder)
chain: B1 chain with E37N, G106A
B44: S80V (designed binder)
chain: B1 chain with S80V, G106A
B45: K56H (designed binder)
chain: B1 chain with K56H, G106A
B46: E54Q (designed binder)
chain: B1 chain with E54Q, G106A
B47: K52D (designed binder)
chain: B1 chain with K52D, G106A
B48: K48A (designed binder)
chain: B1 chain with K48A, G106A
B49: A47C (designed binder)
chain: B1 chain with A47C, G106A
B50: K71D (designed binder)
chain: B1 chain with K71D, G106A
B51: K15Y (designed binder)
chain: B1 chain with K15Y, G106A
B52: A51W (designed binder)
chain: B1 chain with A51W, G106A
B53: L25M (designed binder)
chain: B1 chain with L25M, G106A
B54: E5P (designed binder)
chain: B1 chain with E5P, G106A
B55: K93W (designed binder)
chain: B1 chain with K93W, G106A

In the assay the target is T1, TNFR1. The assay is described as follows: yeast display SC50.
For B1, the “apparent Kd (screen)” value came to 0.79 nM.

Regarding B2, the “apparent Kd (screen)” value was 2.73 nM.

Consider B3, for which the “apparent Kd (screen)” value was 0.49 nM.

For the molecule B4, the “apparent Kd (screen)” value was found to be 1.16 nM.

For the molecule B5, the “apparent Kd (screen)” value came to 1.4 nM.

Consider B6, for which the “apparent Kd (screen)” value is 0.49 nM.

As to B7, the “apparent Kd (screen)” value was determined as 0.869 nM.

With B8, the “apparent Kd (screen)” value is 0.79 nM.

As to B9, the “apparent Kd (screen)” value amounted to 7.78 nM.

As to B10, the “apparent Kd (screen)” value turned out to be 4.83 nM.

Regarding B11, the “apparent Kd (screen)” value was found to be 0.49 nM.

As for B12, the “apparent Kd (screen)” value is 10.4 nM.

Take B13: the “apparent Kd (screen)” value amounted to 0.446 nM.

As to B14, the “apparent Kd (screen)” value worked out at 1.4 nM.

As for B15, the “apparent Kd (screen)” value was 0.446 nM.

As for B16, the “apparent Kd (screen)” value turned out to be 0.446 nM.

As for B17, the “apparent Kd (screen)” value was found to be 1.4 nM.

For B18, the “apparent Kd (screen)” value came to 0.49 nM.

Consider B19, for which the “apparent Kd (screen)” value came to 3.3 nM.

On to B20, for which the “apparent Kd (screen)” value is 0.446 nM.

As for B21, the “apparent Kd (screen)” value stood at 1.69 nM.

With B22, the “apparent Kd (screen)” value was 0.49 nM.

For the molecule B23, the “apparent Kd (screen)” value was determined as 4.83 nM.

As for B24, the “apparent Kd (screen)” value came out at 0.446 nM.

As for B25, the “apparent Kd (screen)” value turned out to be 0.49 nM.

On to B26, for which the “apparent Kd (screen)” value stood at 0.49 nM.

On to B27, for which the “apparent Kd (screen)” value is 1.86 nM.

Consider B28, for which the “apparent Kd (screen)” value came out at 0.446 nM.

Take B29: the “apparent Kd (screen)” value amounted to 0.49 nM.

Turning to B30, the “apparent Kd (screen)” value is 1.16 nM.

Turning to B31, the “apparent Kd (screen)” value stood at 13.8 nM.

In the case of B32, the “apparent Kd (screen)” value turned out to be 0.956 nM.

On to B33, for which the “apparent Kd (screen)” value is 9.41 nM.

For B34, the “apparent Kd (screen)” value is 0.956 nM.

On to B35, for which the “apparent Kd (screen)” value stood at 6.43 nM.

For the molecule B36, the “apparent Kd (screen)” value stood at 5.31 nM.

B37: the “apparent Kd (screen)” value worked out at 1.69 nM.

For B38, the “apparent Kd (screen)” value was 0.539 nM.

Turning to B39, the “apparent Kd (screen)” value was 20.2 nM.

With B40, the “apparent Kd (screen)” value was determined as 0.539 nM.

As for B41, the “apparent Kd (screen)” value is 0.718 nM.

Regarding B42, the “apparent Kd (screen)” value stood at 7.07 nM.

Consider B43, for which the “apparent Kd (screen)” value came to 0.446 nM.

B44: the “apparent Kd (screen)” value came to 1.27 nM.

In the case of B45, the “apparent Kd (screen)” value was 4.83 nM.

Take B46: the “apparent Kd (screen)” value stood at 10.4 nM.

In the case of B47, the “apparent Kd (screen)” value amounted to 0.446 nM.

Take B48: the “apparent Kd (screen)” value stood at 0.446 nM.

For B49, the “apparent Kd (screen)” value came to 0.49 nM.

For the molecule B50, the “apparent Kd (screen)” value was 16.7 nM.

Take B51: the “apparent Kd (screen)” value stood at 0.446 nM.

As for B52, the “apparent Kd (screen)” value is 0.49 nM.

For the molecule B53, the “apparent Kd (screen)” value was 0.539 nM.

For B54, the “apparent Kd (screen)” value is 0.446 nM.

Turning to B55, the “apparent Kd (screen)” value is 2.73 nM.
